Measurements: patent US20240124586A1 (WUXI BIOLOGICS IRELAND, published 2024)
Substitutions are numbered along the chain they refer to. Numbers in names are those of the source. Blank lines part the entries; values can stand above or below the binder they belong to.

Legend:
[1] = biological target: T1, ECD of human CTLA-4 (SPR analyte) (human, UniProt P16410 36-161); experiment: SPR (Biacore T200), antibody captured by anti-human Fc, CTLA-4 ECD as analyte
T1 construct: extracellular domain
Description: SPR technology was used to measure the on-rate constant (ka) and off-rate constant (kd) of the antibodies to ECD of CTLA-4 or PD-1. The affinity constant (KD) was consequently determined.
Biacore T200, Series S Sensor Chip CM5, Amine Coupling Kit, and 10×HBS-EP were purchased from GE Healthcare. Goat anti-human IgG Fc antibody was purchased from Jackson ImmunoResearch Lab (catalog number 109-005-098). In immobilization step, the activation buffer was prepared by mixing 400 mM EDC and 100 mM NHS immediately prior to injection. The CM5 sensor chip was activated for 420 s with the activation buffer. 30 μg/mL of goat anti-human IgG Fcγ antibody in 10 mM NaAc (pH 4.5) was then injected to Fc1-Fc4 channels for 200 s at a flow rate of 5 μL/min. The chip was deactivated by 1 M ethanolamine-HCl (GE). Then the antibodies were captured on the chip. Briefly, 4 μg/mL antibodies in running buffer (HBS-EP+) was injected individually to Fc3 channel for 30 s at a flow rate of […]. […] Regeneration buffer (10 mM Glycine pH 1.5) was injected at 10 μL min for 30 s following every dissociation phase.

[2] = biological target: T2, human CD19 on CD19+ B cell lines (Ramos, Raji) (human, UniProt P15391 20-556); experiment: flow cytometry on Ramos cells
T2 construct: whole, on cells; also called CD19+ Ramos cells; CD19+ Raji cells
T2 sequence (looked up): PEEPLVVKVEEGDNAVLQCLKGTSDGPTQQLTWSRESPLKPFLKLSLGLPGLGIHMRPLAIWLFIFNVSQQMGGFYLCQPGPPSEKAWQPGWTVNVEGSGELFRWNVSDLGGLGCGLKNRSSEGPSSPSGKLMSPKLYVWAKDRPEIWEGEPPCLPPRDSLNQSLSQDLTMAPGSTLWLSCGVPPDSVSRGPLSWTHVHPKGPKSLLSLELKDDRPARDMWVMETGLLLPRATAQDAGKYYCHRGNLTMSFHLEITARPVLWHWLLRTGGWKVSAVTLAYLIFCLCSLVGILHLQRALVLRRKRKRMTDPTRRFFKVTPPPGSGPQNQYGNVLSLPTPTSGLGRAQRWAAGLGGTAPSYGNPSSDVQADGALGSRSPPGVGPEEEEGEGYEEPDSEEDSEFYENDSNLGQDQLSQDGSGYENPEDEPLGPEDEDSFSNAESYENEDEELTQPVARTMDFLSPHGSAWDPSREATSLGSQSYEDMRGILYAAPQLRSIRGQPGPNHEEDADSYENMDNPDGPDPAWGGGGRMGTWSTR

FcγRIIa (H167) = biological target: T3, FcγRIIa (H167) (UniProt P12318 36-218, limits assumed); experiment: SPR (Biacore), receptor captured on anti-his chip, steady state model
T3 sequence (looked up): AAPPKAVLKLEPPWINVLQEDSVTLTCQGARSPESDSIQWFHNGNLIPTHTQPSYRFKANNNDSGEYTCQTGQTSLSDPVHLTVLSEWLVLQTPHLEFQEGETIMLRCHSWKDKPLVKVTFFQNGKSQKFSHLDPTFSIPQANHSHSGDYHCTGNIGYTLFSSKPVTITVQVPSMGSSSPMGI
Description: (§1) Antibody binding affinity to FcγRs was detected using Biacore T200 (or Biacore 8K). Each receptor was captured on an anti-his antibody immobilized CM5 sensor chip (GE). Antibodies at different concentrations were injected over the sensor chip at a flow rate of 30 uL/min for an association phase of 60 s, followed by 60 s dissociation. The chip was then regenerated by 10 mM glycine (pH 1.5) after each binding cycle.
(§2) The sensorgrams of blank surface and buffer channel were subtracted from the test sensorgrams. The experimental data was fitted by 1:1 model using Langmiur analysis (for FcγRI) or steady state model (for other receptors). A molecular weight of 150 KDa was used to calculate the molar concentration of antibodies.

FcγRIIa (R167) = biological target: T4, FcγRIIa (R167) (UniProt P12318 36-218, limits assumed); experiment: as above
T4 sequence (looked up): T3 sequence (looked up) with H132R
Description: as §1, §2

FcγRIIb = biological target: T5, FcγRIIb (UniProt P31994 46-217, limits assumed); experiment: as above
T5 sequence (looked up): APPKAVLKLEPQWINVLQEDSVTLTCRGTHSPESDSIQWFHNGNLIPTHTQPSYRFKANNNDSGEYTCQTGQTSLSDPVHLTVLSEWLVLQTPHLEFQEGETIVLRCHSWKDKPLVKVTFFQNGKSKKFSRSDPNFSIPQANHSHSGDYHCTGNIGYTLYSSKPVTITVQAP
Description: as §1, §2

FcγRIIIa (F176) = FcγRIIIa (F176) (UniProt P08637 17-208); experiment: as above
Description: as §1, §2

FcγRIIIa (V176) = FcγRIIIa (V176) (UniProt P08637 17-208); experiment: as above
Description: as §1, §2

Sequence of FcγRIIIa (V176) (P08637 17-208 F176V limits assumed): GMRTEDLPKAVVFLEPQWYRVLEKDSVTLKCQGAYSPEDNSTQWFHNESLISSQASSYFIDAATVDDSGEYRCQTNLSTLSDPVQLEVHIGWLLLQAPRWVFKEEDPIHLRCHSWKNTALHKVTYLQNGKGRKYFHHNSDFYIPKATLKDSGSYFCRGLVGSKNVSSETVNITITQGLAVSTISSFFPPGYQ
Sequence of FcγRIIIa (F176) (P08637 17-208 limits assumed): as the sequence (P08637 17-208 F176V limits assumed) above, with V160F counted along it
T1 sequence (P16410 36-161): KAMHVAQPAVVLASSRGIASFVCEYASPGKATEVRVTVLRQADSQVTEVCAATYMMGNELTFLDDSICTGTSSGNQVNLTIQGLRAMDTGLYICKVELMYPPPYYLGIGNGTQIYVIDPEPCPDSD

Kd [1]: 0.000357 µM
B1: W3248-U6T5.G25-1.uIgG4.SP, bispecific anti-PD-1 x CTLA-4 (bispecific antibody)
heavy: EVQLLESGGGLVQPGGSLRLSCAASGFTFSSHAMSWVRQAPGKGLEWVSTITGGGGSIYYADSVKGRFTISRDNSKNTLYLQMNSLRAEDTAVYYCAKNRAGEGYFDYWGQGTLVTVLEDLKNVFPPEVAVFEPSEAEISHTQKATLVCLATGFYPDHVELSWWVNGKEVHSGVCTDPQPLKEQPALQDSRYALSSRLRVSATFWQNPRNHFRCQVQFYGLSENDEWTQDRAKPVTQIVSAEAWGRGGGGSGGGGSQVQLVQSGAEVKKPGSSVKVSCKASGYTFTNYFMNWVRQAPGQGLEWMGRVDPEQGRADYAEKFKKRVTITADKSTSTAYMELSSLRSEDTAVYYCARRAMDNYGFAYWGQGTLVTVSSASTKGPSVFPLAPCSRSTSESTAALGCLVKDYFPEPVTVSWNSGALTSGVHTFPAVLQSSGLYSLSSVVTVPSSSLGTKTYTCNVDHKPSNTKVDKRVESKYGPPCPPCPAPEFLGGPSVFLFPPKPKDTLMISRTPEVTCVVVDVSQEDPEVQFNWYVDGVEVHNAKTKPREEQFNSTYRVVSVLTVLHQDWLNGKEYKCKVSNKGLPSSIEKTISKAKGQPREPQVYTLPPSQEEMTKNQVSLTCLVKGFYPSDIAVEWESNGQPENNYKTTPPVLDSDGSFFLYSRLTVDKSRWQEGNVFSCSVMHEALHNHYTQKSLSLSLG
light 1: SYELTQPLSVSVALGQTARITCGGDNIGNKDVHWYQQKPGQAPVLVIYRDSNRPSGIPEGFSGSNSGNTATLTISRAQAGDEADYYCQVWDSIWVFGGGTKLTVLPDIQNPDPAVYQLRDSKSSDKSVCLFTDFDSQTQVSQSKDSDVYITDKCVLDMRSMDFKSNSAVAWSQKSDFACANAFQNSIIPEDTFFPSPESS
light 2: EIVLTQSPDFQSVTPKEKVTITCSANSALSYMYWYQQKPDQSPKLWVHGTSNLASGVPSRFSGSGSGTDFTLTINSLEAEDAATYYCHHWSNTQWTFGGGTKVEIKRTVAAPSVFIFPPSDEQLKSGTASVVCLLNNFYPREAKVQWKVDNALQSGNSQESVTEQDSKDSTYSLSSTLTLSKADYEKHKVYACEVTHQGLSSPVTKSFNRGEC
notes: IgG4 (S228P); also called WBP3248-U6T5.G25-1-uIgG4.SP; U6T5.G25.IgG4

EC50 [2]: 0.0156 µM
Kd (FcγRIIa (H167)): 20.5 µM
Kd (FcγRIIa (R167)): 15.8 µM
Kd (FcγRIIb): 24.1 µM
Kd (FcγRIIIa (F176)): 29.3 µM
Kd (FcγRIIIa (V176)): 14 µM
B2: W3438-T3U4.E17-1.uIgG4.SP, bispecific anti-CD3 x CD19 (bispecific antibody)
heavy 1: QVQLVQSGAEVKKPGSSVKVSCKASGFAFTDYYIHWVRQAPGQGLEWMGWISPGNVNTKYNENFKGRVTITADKSTSTAYMELSSLRSEDTAVYYCARDGYSLYYFDYWGQGTLVTVLEDLKNVFPPEVAVFEPSEAEISHTQKATLVCLATGFYPDHVELSWWVNGKEVHSGVCTDPQPLKEQPALQDSRYALSSRLRVSATFWQNPRNHFRCQVQFYGLSENDEWTQDRAKPVTQIVSAEAWGRYGPPCPPCPAPEFLGGPSVFLFPPKPKDTLMISRTPEVTCVVVDVSQEDPEVQFNWYVDGVEVHNAKTKPREEQFNSTYRVVSVLTVLHQDWLNGKEYKCKVSNKGLPSSIEKTISKAKGQPREPQVYTLPPCQEEMTKNQVSLWCLVKGFYPSDIAVEWESNGQPENNYKTTPPVLDSDGSFFLYSRLTVDKSRWQEGNVFSCSVMHEALHNHYTQKSLSLSLGK
light 1: DIVMTQSPDSLAVSLGERATINCKSSQSLLNSRTRKNYLAWYQQKPGQPPKLLIYWASTRQSGVPDRFSGSGSGTDFTLTISSLQAEDVAVYYCTQSHTLRTFGGGTKVEIKPDIQNPDPAVYQLRDSKSSDKSVCLFTDFDSQTQVSQSKDSDVYITDKCVLDMRSMDFKSNSAVAWSQKSDFACANAFQNSIIPEDTFFPSPESS
heavy 2: QMQLVQSGPEVKKPGTSVKVSCKASGYAFTSYNMYWVRQARGQRLEWIGYIDPYNGDTTYNQKFKGRVTITRDMSTSTAYMELSSLRSEDTAVYYCLTTAYAMDYWGQGTLVTVSSASTKGPSVFPLAPCSRSTSESTAALGCLVKDYFPEPVTVSWNSGALTSGVHTFPAVLQSSGLYSLSSVVTVPSSSLGTKTYTCNVDHKPSNTKVDKRVESKYGPPCPPCPAPEFLGGPSVFLFPPKPKDTLMISRTPEVTCVVVDVSQEDPEVQFNWYVDGVEVHNAKTKPREEQFNSTYRVVSVLTVLHQDWLNGKEYKCKVSNKGLPSSIEKTISKAKGQPREPQVCTLPPSQEEMTKNQVSLSCAVKGFYPSDIAVEWESNGQPENNYKTTPPVLDSDGSFFLVSRLTVDKSRWQEGNVFSCSVMHEALHNHYTQKSLSLSLGK
light 2: DIQLTQSPSFLSASVGDRVTITCSASSTVNYMHWYQQKPGKAPKLLIYSTSNLASGVPSRFSGSGSGTEFTLTISSLQPEDFATYYCHQWSSYPYTFGQGTKLEIKRTVAAPSVFIFPPSDEQLKSGTASVVCLLNNFYPREAKVQWKVDNALQSGNSQESVTEQDSKDSTYSLSSTLTLSKADYEKHKVYACEVTHQGLSSPVTKSFNRGEC
notes: also called E17-Design_2-QQQQ (IgG4); E17-IgG4; copies: 1 + 1 + 1 + 1
